Experiments:
[1] = target: T1, human GPVI extracellular region-human Fc fusion protein (hGPVI-hFc) (human); assay: blocking ELISA: binding of hGPVI-hFc to immobilised collagen in the presence of the antibody (panel Comparsion of mouse anti-GPVI monoclonal antibodies)
T1 construct: Expressed in COS-1, purified on Protein A; also called GPVI-HHH-hFc; hGPVIHHH-hFc

[2] = target: T1, human GPVI extracellular region-human …; assay: competition ELISA on immobilised hGPVI-hFc: unlabelled antibody against the peroxidase-labelled mouse antibody of the panel titled F1232-10-2 competition assay (the text, paragraph 248, names F1232-10-1); x axis relative amount to labeled Ab (fold)
Procedure: Next, by using the peroxidase-labeled antibody, the competitive test for a variety of purified antibody was performed. That is, 25 μL of the above labeled antibody and 25 μL of each purified antibody were added to well of hGP-hFc-immobilized plate. After incubation at 37° C. for one hour, the well was washed five times with the saline containing 0.05% Tween20, and the reaction mixture was developed with TMB solution (BioFix). After incubation at room temperature for 10 minutes, the reaction was terminated with 0.5 M sulfuric acid solution and an absorbance at 450 nm was measured with the plate spectrophotometer (Multi-Scan JX, Dainippon Pharmaceutical).
To compare an antigen binding property of mouse/human chimeric antibody with that of the corresponding mouse monoclonal antibody, in the same method as that of EXAMPLE 14, peroxidase-labeled F1232-37-2, F1232-18-3, F1232-43-3 and F1232-10-1 were prepared. […] Further, an inhibiting activity of each antibody for binding of GPVI to collagen was measured according to the method described in EXAMPLE 2 or EXAMPLE 14. […]

hGPVI-mL3-hFc = target: T2, hGPVI-mL3-hFc (human (loop 3 from mouse)); assay: competition ELISA on hGPVI-hFc plate; soluble hGPVI-mL3-hFc as competitor
T2 construct: also called hGPVI-hFc-mL3
Procedure: (§1) To the plate, wherein hGPVI-hFc has been immobilized at 4 μg/mL, a mixture of peroxidase-labeled F1232-37-2 or cF1232-37-2 by the method described in EXAMPLE 14, and hGPVI-hFc, mGPVI-hFc, hGPVI-mL3-hFc, wherein these were prepared in EXAMPLE 7, or hGPVI-K59E-hFc (a fusion protein consisting of one amino acid mutated human GPVI extracellular region, wherein lysine at 59 of human GPVI is substituted for glutamic acid, and human Fc), which has been prepared by the same method as that of EXAMPLE 1 and diluted with 0.1% BSA/PBS was added, and the plate was incubated at 37° C. for one hour. After incubation, the mixture was developed using TMB solution, and absorbance at 450 nm was measured.

hGPVI-K59E-hFc = target: T3, hGPVI-K59E-hFc (human); assay: competition ELISA on hGPVI-hFc plate; soluble hGPVI-K59E-hFc as competitor
T3 construct: Fusion of human GPVI extracellular region with lysine at 59 of human GPVI substituted for glutamic acid, and human Fc
Procedure: as §1

[3] = target: T1, human GPVI extracellular region-human …; assay: competition ELISA on immobilised hGPVI-hFc: unlabelled antibody against labelled cF1232-37-2/COS
Procedure: as §1
To confirm the reactivity of cF1232-37-2/CHO, using binding ability to hGPVI-hFc as an index, the competitive test with cF1232-37-2 prepared by transient gene expression system with COS cells was performed. The measurement method was in accordance with the method described in 17-3 of EXAMPLE 17. Using hGPVI-hFc as an immobilized protein, a competitive activity to labeled cF1232-37-2/COS was confirmed when unlabeled cF1232-37-2/CHO or cF1232-37-2/COS was added at a variety of concentration. It was confirmed that the reactivity of cF1232-37-2/CHO is equivalent to that of cF1232-37-2/COS.

[4] = target: T1, human GPVI extracellular region-human …; assay: SPR (BIACORE3000), GPVI-Fc on CM5 chip, antibody 1.25-40 nM as analyte, bivalent analyte fit
Procedure: (§2) Dissociation constant for the anti-GPVI monoclonal antibody prepared in EXAMPLE 2 was measured using protein interaction analyzer BIACORE3000 (BIACORE). That is, to sensor chip, CM5 chip (BIACORE), GPVI substitution mutant (hGPVIHHH-hFc and FFH-hFc) that is prepared in EXAMPLE 1 was linked according to the manual. Then each antibody was diluted with HBS-EP buffer solution (BIACORE) to prepare a series of diluted solution from 1.25 to 40 nM, and analyzed with BIACORE3000. Every each antibody bound chip, the chip was regenerated with glycine buffer solution at pH1.5. The obtained result was analyzed with Bivalent analyte, the evaluation software (BIACORE) to calculate dissociation constant. It was shown that each anti-GPVI monoclonal antibody has a sufficient affinity to GPVI-HHH-hFc.

[5] = target: T4, cynomolgus monkey D1D2-human D3 chimeric GPVI-human Fc fusion protein (GPVI-FFH-hFc) (cynomolgus monkey (D1, D2) and human …); assay: as above
T4 construct: also called Monkey GPVI
Procedure: as §2

[6] = target: T1, human GPVI extracellular region-human …; assay: ELISA on immobilised hGPVI-hFc, peroxidase-labelled anti-mouse immunoglobulin antibody
Procedure: Binding activity to the antigen was detected by ELISA. To each well of immunoplate immobilized with hGPVI-hFc (prepared by the method described in EXAMPLE 2 and the like), F1232-37-2 antibody and F1232-37-2 PEGylated antibody, wherein both antibodies had been adjusted to the same concentration, was added and the plate was incubated at 37° C. for one hour. The well was washed with saline containing 0.05% Tween20. Then 50 μL of peroxidase-labeled anti-mouse immunoglobulin antibody (DAKO, P260), which had been diluted by 1000-fold with 10% rabbit serum-containing D-PBS, was added to each well. After incubation at 37° C. for one hour, coloring reaction by the TMB substrate was done to measure an absorbance at 450 nm with plate spectro-photometer (Molecular Devices, Wako). As a result, it was confirmed that both F1232-37-2 antibody and PEGylated F1232-37-2 antibody have almost equivalent binding activity.

[7] = target: T1, human GPVI extracellular region-human …; assay: SPR (BIACORE 3000), hGPVI-hFc on CM5 chip, 0-800 nM analyte, 1:1 binding fit
Procedure: (§3) Dissociation constant for F1232-37-2 (whole antibody) prepared in EXAMPLE 2, and F(ab′)2 and Fab prepared in 22-1 and 21-2 was measured with Protein Interaction Analyzer BIACORE 3000 (BIACORE). That is, to sensorchip CM5 (BIACORE) hGPVI-hFc prepared in EXAMPLE 1 was bound according to the manual. Then a series of dilution from 0 to 800 nM of each antibody was prepared with HBS-EP buffer (BIACORE) and analyzed with BIACORE 3000. After completion of antibody binding, chip was regenerated with glycine buffer (pH 1.5) (BIACORE). Regarding the results of whole antibody and F(ab′)₂, evaluation software Bivalent analyte (BIACORE) was used for analysis; 1:1 Binding for Fab analysis. Then the dissociation constant was calculated. As a result, dissociation constant of F1232-37-2 F(ab′)2 and Fab was about 0.7 and 0.6, respectively, when that of whole antibody defined as one.

[8] = target: T1, human GPVI extracellular region-human …; assay: ELISA on immobilised hGPVI-hFc (GPVI antigen binding assay of Example 31)
[9] = target: T1, human GPVI extracellular region-human …; assay: SPR (BIACORE 3000), hGPVI-hFc on CM5 chip, 0-800 nM analyte, bivalent analyte fit
Procedure: as §3

T1 sequence (chain, as listed by the source limits assumed): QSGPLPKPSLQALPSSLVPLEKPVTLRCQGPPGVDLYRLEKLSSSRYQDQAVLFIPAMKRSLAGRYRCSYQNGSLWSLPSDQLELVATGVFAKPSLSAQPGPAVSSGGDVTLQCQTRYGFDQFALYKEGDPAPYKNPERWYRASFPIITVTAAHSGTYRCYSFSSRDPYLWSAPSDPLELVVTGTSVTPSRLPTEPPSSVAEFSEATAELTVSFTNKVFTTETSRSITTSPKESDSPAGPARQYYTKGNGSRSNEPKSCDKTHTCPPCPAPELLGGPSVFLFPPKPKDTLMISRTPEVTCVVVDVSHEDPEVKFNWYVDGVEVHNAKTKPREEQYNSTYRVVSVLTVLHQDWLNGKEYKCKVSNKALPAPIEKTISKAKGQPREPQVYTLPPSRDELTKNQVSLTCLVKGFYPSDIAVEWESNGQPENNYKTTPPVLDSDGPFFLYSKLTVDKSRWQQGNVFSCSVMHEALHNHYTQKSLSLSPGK
T3 sequence (chain, as listed by the source K59E K59E limits assumed): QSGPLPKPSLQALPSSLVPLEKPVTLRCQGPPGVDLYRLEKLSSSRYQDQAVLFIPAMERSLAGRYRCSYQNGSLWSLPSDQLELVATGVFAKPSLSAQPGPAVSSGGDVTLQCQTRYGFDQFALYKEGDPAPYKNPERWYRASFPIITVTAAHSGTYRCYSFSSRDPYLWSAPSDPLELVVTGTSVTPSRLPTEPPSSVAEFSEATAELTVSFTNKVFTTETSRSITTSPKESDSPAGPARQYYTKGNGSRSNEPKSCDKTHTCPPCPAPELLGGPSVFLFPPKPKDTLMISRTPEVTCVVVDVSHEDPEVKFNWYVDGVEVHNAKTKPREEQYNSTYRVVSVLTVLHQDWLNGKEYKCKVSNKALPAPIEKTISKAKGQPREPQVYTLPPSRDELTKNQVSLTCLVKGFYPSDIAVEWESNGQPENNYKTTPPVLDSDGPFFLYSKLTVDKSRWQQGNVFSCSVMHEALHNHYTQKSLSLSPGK
T2 sequence (chain, as listed by the source limits assumed): as the sequence (chain, as listed by the source K59E K59E limits assumed) above, with G33D, E59K counted along it
T4 sequence (chain, as listed by the source mutant limits assumed): as the sequence (chain, as listed by the source K59E K59E limits assumed) above, with S2R, E59K, S61H, L78P, R166G, V181M, P442S counted along it

B1: F1232-10-1 (antibody, V domains shown)
VH: VTLKESGPGILQPSQTLSLTCSFSGFSLSTYGIGVGWIRQPSGKGLEWLAHIWWNDDKYYNTALKSRLTISKDTSNNQVFLKIASVDTADTATYYCARVYYYGSSFDYWGQGTTLTVSS
VL: DIQMTQSPASLSASVGETVTITCRASENIFSILAWYQQKQGKSPQLLVYAATNLADGVPSRFSGSGSGTQFSLKINSLQPEDFGSYYCQHFYGTPWTFGGGTKLEIKR
notes: Mouse hybridoma monoclonal antibody
binding result [1]: binds

B2: cF1232-10-1 (antibody, human IgG4, V domains shown)
VH: VTLKESGPGILQPSQTLSLTCSFSGFSLSTYGIGVGWIRQPSGKGLEWLAHIWWNDDKYYNTALKSRLTISKDTSNNQVFLKIASVDTADTATYYCARVYYYGSSFDYWGQGTTLTVSS
VL: DIQMTQSPASLSASVGETVTITCRASENIFSILAWYQQKQGKSPQLLVYAATNLADGVPSRFSGSGSGTQFSLKINSLQPEDFGSYYCQHFYGTPWTFGGGTKLEIKR
notes: Mouse/human chimeric antibody of F1232-10-1; human IgG4 and kappa constant regions; COS-1
binding result [2]: binds

B3: cF1232-37-2 (mouse/human chimeric antibody of F1232-37-2) (antibody, human IgG4, V domains shown)
VH: VQLQQSGPELVRPGESVKISCKGSGYTFTDYAIHWVKLSHAKSLEWIGVISIYYDDTNYNQKFKGKATMTVDKSSSTAYLELARLTSEDSAIYYCARRRDSSGPYAMDYWGQGTSVTVSS
VL: DIVLTQSPASLAVSLGQRATISCRASESVDSYGNSFMHWYQQKPGQPPKLLIYRASNLESGIPARFSGSGSRTDFTLTINPVEADDVATYYCQQSNEDPYTFGGGTKLEIKR
notes: Mouse V regions of F1232-37-2 with human IgG4 (Cgamma4) and human kappa constant regions; plasmids pTK-2510 and pTK-2511; made in COS-1 (/COS) and in CHO DXB11 (/CHO); also called cF1232-37-2/COS; cF1232-37-2/CHO
binding result (hGPVI-mL3-hFc): binds | binding result (hGPVI-K59E-hFc): binds | IC50 (read off the curve) [3]: ~1 µg/mL

B4: F1232-37-2 (antibody, V domains shown)
VH: VQLQQSGPELVRPGESVKISCKGSGYTFTDYAIHWVKLSHAKSLEWIGVISIYYDDTNYNQKFKGKATMTVDKSSSTAYLELARLTSEDSAIYYCARRRDSSGPYAMDYWGQGTSVTVSS
VL: DIVLTQSPASLAVSLGQRATISCRASESVDSYGNSFMHWYQQKPGQPPKLLIYRASNLESGIPARFSGSGSRTDFTLTINPVEADDVATYYCQQSNEDPYTFGGGTKLEIKR
notes: Mouse hybridoma monoclonal antibody; also called F1232-37-2 antibody; F1232-37-2 whole antibody
binding result (hGPVI-mL3-hFc): binds | binding result (hGPVI-K59E-hFc): binds | Kd [4]: 0.403 nM | Kd [5]: 1 nM | EC50 (read off the curve) [6]: ~0.02 µg/mL

B5: F1232-37-2 Fab (Fab, V domains shown)
VH: VQLQQSGPELVRPGESVKISCKGSGYTFTDYAIHWVKLSHAKSLEWIGVISIYYDDTNYNQKFKGKATMTVDKSSSTAYLELARLTSEDSAIYYCARRRDSSGPYAMDYWGQGTSVTVSS
VL: DIVLTQSPASLAVSLGQRATISCRASESVDSYGNSFMHWYQQKPGQPPKLLIYRASNLESGIPARFSGSGSRTDFTLTINPVEADDVATYYCQQSNEDPYTFGGGTKLEIKR
notes: Fab made from mouse F1232-37-2 with papain; also called F1232-37-2 Fab antibody
dissociation constant relative to that of the whole antibody (defined as one) [7]: ~0.6 fold of whole F1232-37-2 | EC50 (read off the curve) [8]: ~0.3 µg/mL

B6: F1232-37-2 F(ab')2 (other)
VH: VQLQQSGPELVRPGESVKISCKGSGYTFTDYAIHWVKLSHAKSLEWIGVISIYYDDTNYNQKFKGKATMTVDKSSSTAYLELARLTSEDSAIYYCARRRDSSGPYAMDYWGQGTSVTVSS
VL: DIVLTQSPASLAVSLGQRATISCRASESVDSYGNSFMHWYQQKPGQPPKLLIYRASNLESGIPARFSGSGSRTDFTLTINPVEADDVATYYCQQSNEDPYTFGGGTKLEIKRADAA
notes: F(ab')2 fragment made from mouse F1232-37-2 with Lysyl Endopeptidase; also called mouse monoclonal antibody F1232-37-2 F(ab')2
dissociation constant relative to that of the whole antibody (defined as one) [9]: ~0.7 fold of whole F1232-37-2

Source: patent US20090041783A1 (MOCHIDA PHARMACEUTICAL, published 2009)
